This note sets out measurements from patent publication US20050089521A1.

Test [1] has as its target mouse trkC (on E11 mouse trigeminal neurons) (mouse) (UniProt Q6VNS1). The test is described as follows: cell-based or functional assay.
Test [2] concerns the target rat trkC (on E12 rat trigeminal neurons) (rat) (UniProt Q03351). As to the kind of experiment: cell-based or functional assay.

Sequence of mouse trkC (on E11 mouse trigeminal neurons) (mouse) (Q6VNS1 32-825): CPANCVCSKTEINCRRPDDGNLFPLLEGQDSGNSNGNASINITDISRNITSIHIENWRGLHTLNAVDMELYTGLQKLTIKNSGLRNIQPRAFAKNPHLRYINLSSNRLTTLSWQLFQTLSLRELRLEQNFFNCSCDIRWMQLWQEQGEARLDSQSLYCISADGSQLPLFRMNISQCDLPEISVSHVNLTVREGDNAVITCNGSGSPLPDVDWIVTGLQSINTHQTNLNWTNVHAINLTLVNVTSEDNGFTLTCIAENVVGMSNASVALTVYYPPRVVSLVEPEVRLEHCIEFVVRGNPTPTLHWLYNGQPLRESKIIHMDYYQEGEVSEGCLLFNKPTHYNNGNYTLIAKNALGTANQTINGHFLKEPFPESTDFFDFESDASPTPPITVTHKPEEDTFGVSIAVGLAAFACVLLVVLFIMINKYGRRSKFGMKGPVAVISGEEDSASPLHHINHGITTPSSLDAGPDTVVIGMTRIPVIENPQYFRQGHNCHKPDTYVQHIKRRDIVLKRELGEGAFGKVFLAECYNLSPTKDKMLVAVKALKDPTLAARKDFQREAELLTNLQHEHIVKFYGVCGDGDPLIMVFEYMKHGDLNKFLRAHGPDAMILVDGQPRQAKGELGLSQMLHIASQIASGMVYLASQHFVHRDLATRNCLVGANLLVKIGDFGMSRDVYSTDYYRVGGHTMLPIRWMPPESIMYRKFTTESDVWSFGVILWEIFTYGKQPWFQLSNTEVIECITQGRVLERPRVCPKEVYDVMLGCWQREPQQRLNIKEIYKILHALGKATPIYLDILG
Sequence of rat trkC (on E12 rat trigeminal neurons) (rat) (Q03351 32-864): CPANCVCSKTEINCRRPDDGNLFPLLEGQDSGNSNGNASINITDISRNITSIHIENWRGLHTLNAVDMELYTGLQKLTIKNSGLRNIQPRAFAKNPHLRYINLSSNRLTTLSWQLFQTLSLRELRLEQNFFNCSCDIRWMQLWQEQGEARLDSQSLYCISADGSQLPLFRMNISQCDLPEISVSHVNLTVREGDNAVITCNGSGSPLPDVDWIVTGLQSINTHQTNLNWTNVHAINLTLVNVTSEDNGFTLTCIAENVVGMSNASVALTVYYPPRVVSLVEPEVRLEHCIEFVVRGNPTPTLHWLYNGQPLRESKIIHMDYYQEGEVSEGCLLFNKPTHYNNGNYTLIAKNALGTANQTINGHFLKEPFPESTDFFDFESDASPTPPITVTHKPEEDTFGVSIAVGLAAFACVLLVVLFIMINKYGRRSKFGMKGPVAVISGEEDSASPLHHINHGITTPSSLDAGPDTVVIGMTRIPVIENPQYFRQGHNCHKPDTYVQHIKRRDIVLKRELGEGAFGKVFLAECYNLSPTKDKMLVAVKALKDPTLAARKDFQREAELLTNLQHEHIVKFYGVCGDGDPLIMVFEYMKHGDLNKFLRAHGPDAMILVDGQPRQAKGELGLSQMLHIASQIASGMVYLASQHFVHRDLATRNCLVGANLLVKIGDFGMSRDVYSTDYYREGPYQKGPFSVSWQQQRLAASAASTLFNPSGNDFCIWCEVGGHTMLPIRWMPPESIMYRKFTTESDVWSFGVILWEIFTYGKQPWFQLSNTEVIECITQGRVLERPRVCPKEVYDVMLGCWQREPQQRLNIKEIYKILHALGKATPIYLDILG

Regarding neurotrophin-3 (NT-3) (ligand), the survival of trigeminal neurons after 24 hours in culture in test [1] and in test [2] was 0.08 ng/mL each time.
